Measurements: article PMC10946326

Key:
[1] = molecular target: T1, MOZ WH1 (Homo sapiens, UniProt Q92794 2-86); experiment: NMR
T1 sequence: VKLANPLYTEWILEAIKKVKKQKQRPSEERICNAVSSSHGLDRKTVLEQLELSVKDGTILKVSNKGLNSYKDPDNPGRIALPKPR

[2] = molecular target: T2, MORF WH1 (Homo sapiens, UniProt Q8WYB5 5-84); experiment: EMSA
T2 sequence: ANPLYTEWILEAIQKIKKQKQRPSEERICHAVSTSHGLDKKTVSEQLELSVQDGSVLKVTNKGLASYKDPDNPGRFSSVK

[3] = molecular target: MORF WH1;p300 TAZ2 (Homo sapiens;Homo sapiens?, UniProt Q8WYB5;Q09472 5-84;1722-1812, |); experiment: NMR

Measured: binding result

MORF WH1;p300 TAZ2, sequence (Q09472 1722-1812, one chain of several): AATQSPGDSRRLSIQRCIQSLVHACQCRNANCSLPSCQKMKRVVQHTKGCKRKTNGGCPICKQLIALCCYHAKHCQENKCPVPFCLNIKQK

B1: CpG-DNA16 (dsDNA)
DNA 1: TAACCTGCGCACCATA
DNA 2: TATGGTGCGCAGGTTA
binds: all assays above
